Consider 4 molecules from article PMC10624354 (Science Advances, 2023).

Sequences and labels used below:
B3: HIS-tagged PIF4 (natural protein, Arabidopsis, UniProt Q8W2F3 1-430, looked up)
chain: MEHQGWSFEENYSLSTNRRSIRPQDELVELLWRDGQVVLQSQTHREQTQTQKQDHHEEALRSSTFLEDQETVSWIQYPPDEDPFEPDDFSSHFFSTMDPLQRPTSETVKPKSSPEPPQVMVKPKACPDPPPQVMPPPKFRLTNSSSGIRETEMEQYSVTTVGPSHCGSNPSQNDLDVSMSHDRSKNIEEKLNPNASSSSGGSSGCSFGKDIKEMASGRCITTDRKRKRINHTDESVSLSDAIGNKSNQRSGSNRRSRAAEVHNLSERRRRDRINERMKALQELIPHCSKTDKASILDEAIDYLKSLQLQLQVMWMGSGMAAAAASAPMMFPGVQPQQFIRQIQSPVQLPRFPVMDQSAIQNNPGLVCQNPVQNQIISDRFARYIGGFPHMQAATQMQPMEMLRFSSPAGQQSQQPSSVPTKTTDGSRLDH

In the assay “HIS-tagged PIF4” the target is B3. The experiment in a line: pull-down.
Another assay deals with T1, PIF4-NLuc (Arabidopsis, UniProt Q8W2F3 1-430).
T1 sequence (looked up): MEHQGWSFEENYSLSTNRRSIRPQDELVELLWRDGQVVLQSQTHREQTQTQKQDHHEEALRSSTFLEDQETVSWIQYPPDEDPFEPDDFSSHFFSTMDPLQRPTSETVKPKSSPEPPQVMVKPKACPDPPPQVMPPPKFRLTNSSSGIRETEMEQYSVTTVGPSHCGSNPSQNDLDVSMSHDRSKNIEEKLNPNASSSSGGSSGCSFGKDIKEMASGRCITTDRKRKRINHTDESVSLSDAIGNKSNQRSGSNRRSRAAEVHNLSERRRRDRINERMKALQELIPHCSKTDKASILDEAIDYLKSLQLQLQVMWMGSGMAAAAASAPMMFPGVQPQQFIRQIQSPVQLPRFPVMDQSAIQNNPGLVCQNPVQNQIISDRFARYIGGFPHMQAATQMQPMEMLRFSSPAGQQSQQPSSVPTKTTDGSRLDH
The assay can be described thus: split reporter.

The target in a further assay is MBP-tagged HSFA1d (Arabidopsis, UniProt Q9LQM7 1-485). The assay can be described thus: pull-down.
Sequence of MBP-tagged HSFA1d (Q9LQM7 whole entry): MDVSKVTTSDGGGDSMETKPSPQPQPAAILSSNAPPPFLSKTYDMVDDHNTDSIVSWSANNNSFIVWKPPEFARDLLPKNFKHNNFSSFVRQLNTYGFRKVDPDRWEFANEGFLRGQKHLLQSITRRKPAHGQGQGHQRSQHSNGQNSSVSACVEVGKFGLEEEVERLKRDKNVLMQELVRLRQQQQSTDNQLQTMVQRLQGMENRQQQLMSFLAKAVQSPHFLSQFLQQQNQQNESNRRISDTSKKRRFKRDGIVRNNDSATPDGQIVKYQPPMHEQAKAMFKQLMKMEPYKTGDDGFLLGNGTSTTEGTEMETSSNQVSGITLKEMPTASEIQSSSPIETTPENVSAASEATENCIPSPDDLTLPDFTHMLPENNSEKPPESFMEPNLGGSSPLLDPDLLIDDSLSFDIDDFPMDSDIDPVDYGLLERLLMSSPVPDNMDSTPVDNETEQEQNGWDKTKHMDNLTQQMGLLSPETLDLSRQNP

B1: MBP-HSFA1d-S1 (DNA binding domain, amino acids 1 to 144) (domain or fragment)
chain: not shown
For the molecule B1, the binding result in the assay with HIS-tagged PIF4 is “binds”.

B2: HSFA1d-CLuc (natural protein)
chain: not shown
In the case of B2, in the assay with PIF4-NLuc, the “fold increase of luciferase activity at 28°C against 21°C” value is roughly 60 fold.

As to B3, in the assay with MBP-tagged HSFA1d, the binding result is reported as “binds”.

B4: MBP-HSFA1d-S2 (oligomerization domain HR-A/B and NLS, amino acids 145 to 260) (domain or fragment, Arabidopsis, UniProt Q9LQM7 145-260, looked up)
chain: GQNSSVSACVEVGKFGLEEEVERLKRDKNVLMQELVRLRQQQQSTDNQLQTMVQRLQGMENRQQQLMSFLAKAVQSPHFLSQFLQQQNQQNESNRRISDTSKKRRFKRDGIVRNND
As to B4, in the assay with HIS-tagged PIF4, the binding result is given as “binds”.
